Results published in the supplement of paper PMC10567573.
± gives the standard deviation.

Assay: protein stability index of a GFP-peptide fusion (GPS, HEK-293T) (PSI 1-6); higher = more stable
[1] = treatment: DMSO, c terminus: a fixed tail appended
[2] = treatment: MLN4924 1 uM, 8 h, c terminus: a fixed tail appended
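Also: 24-mer peptide tiles fused after GFP, lentivirally expressed, FACS-sorted into six equal bins by GFP/DsRed ratio, decoded by Illumina sequencing, PSI is the read-weighted mean bin number.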

Sequence	protein stability index [1]	protein stability index [2]	protein stability index (treatment: DMSO, c terminus: native)	protein stability index (treatment: MLN4924 1 uM, 8 h, c terminus: native)
RTIVKGYNENVYTEDGKLDIWSKS [MED27]	3.84 ± 0.35	3.91 ± 0.3	–	–
SQEEGKSALEDQGSNPSSSNSSQD [PPFIA4]	5.67 ± 0.16	5.62 ± 0.28	–	–
KIINTKKLSARDHQKLEREARICR [CAMK2B]	3.45 ± 0.29	3.88 ± 0.24	–	–
KGLKKVVHETPAASKTVFFFFSSP [BTBD1]	2.29 ± 0.54	2.29 ± 0.26	–	–
CGPQWEMSEWSECTAKCGERSVVT [ADAMTSL2]	2.92 ± 0.42	3 ± 0.52	–	–
QFEPQLTLWDVFGANKEVQELLER [RSAD1]	3.24 ± 0.26	3.8 ± 0.47	–	–
MQVFAKLGTDPTHVMGLYPDLLPT [VPS39]	2.16 ± 0.27	2.35 ± 0.25	–	–
VPVDTGVAARTPAVEGLTEAEEEE [TPD52L2]	5.51 ± 0.15	5.4 ± 0.13	–	–
VKEGGSYGFSLKTVQGKKGVYMTD [PDZK1]	3.39 ± 0.41	3.08 ± 0.53	–	–
EAEADEEADPPASDLPTPQAIEPQ [SNX8]	5.62 ± 0.17	5.63 ± 0.26	–	–
SMSSRLSIYDNVPGSILYSSSGDL [DLC1]	3.24 ± 0.089	3.13 ± 0.22	–	–
SVIKNYEDHFPLLFSEASECMLLV [MAGEA10]	3.3 ± 0.74	2.33 ± 0.046	–	–
RVVSWLVSAEGSHPDPAPFCADNP [DVL3]	2.35 ± 0.3	2.58 ± 0.24	–	–
YLNYYQGMLDVADESLTDLEAQPY [P3H4]	2.8 ± 0.15	2.81 ± 0.14	–	–
LAAGSAVFDAMFNGGMATTSAEIE [BTBD1]	3.72 ± 0.35	3.75 ± 0.29	–	–
EIDTQGRHLAHSMLQRAIAYQHSG [C10orf62]	2.91 ± 0.24	3.15 ± 0.28	–	–
GFVMVPFEYRGEQHKTCMLNATSK [EDNRA]	2.24 ± 0.43	2.75 ± 0.37	–	–
EVKSSIAGSSTWERYFIPVSCFLT [SLC29A1]	2.44 ± 0.37	2.34 ± 0.36	–	–
LLVGGLPPGPDRLPSNLVQYYDDE [KLHL14]	4.17 ± 0.25	4.04 ± 0.087	–	–
QRITQEQEKKLSFIEALIQQYQEQ [TRIM63]	2.68 ± 0.36	3.02 ± 0.52	–	–
KLLVVDRTRRLGNMKNGANDVKHH [PRKX]	3.23 ± 0.46	3.48 ± 0.15	–	–
NLIEKSASLDNGGCALTTFSVLEG [SOAT1]	3.28 ± 0.37	3.32 ± 0.32	–	–
SINQRLNKRERSKLKNLRRKQRRR [RNF180]	3.9 ± 0.14	3.93 ± 0.24	–	–

Sequence	protein stability index [1]	protein stability index [2]	protein stability index (treatment: DMSO, c terminus: native)	protein stability index (treatment: MLN4924 1 uM, 8 h, c terminus: native)
MKDISNLEENDETRFILSKVPSEA [SLC6A17]	4.91 ± 0.24	4.94 ± 0.15	–	–
LGVQTGGPGGRRAGEPGHSPADYL [DYRK1B]	4.34 ± 0.38	4.3 ± 0.31	–	–
CDEARNHYGGVVSLIPLILDLMKE [SPACA9]	2.3 ± 0.29	2.36 ± 0.23	–	–
LLPIVPLSWLVWLLLLLLASLLPS [ADAMTS4]	3.04 ± 0.33	3.17 ± 0.51	–	–
SRHLNSQVKKTTTRWCHIVRDSDS [PHTF1]	2.33 ± 0.54	3.15 ± 0.66	–	–
DEEVVATAGDRLTEFRKGAQSLPG [IRX6]	5.12 ± 0.2	5.19 ± 0.22	–	–
PPPCKFGEGKLSKRLKHKDDSVMK [C22orf31]	4.51 ± 0.15	4.61 ± 0.06	–	–
DIGKGAFSVVRRCVKLCTGHEYAA [CAMK2B]	1.93 ± 0.2	2.06 ± 0.37	–	–
ALPKATILDLSCNKLTTLPSDFCG [LRRC59]	2.82 ± 0.16	3.02 ± 0.28	–	–
AYDLSSVIASGSSVGHNNLIPLAN [CARM1]	3.23 ± 0.4	3.09 ± 0.28	–	–
CLLVLRLFLGIHVFLVSCALPDSV [AUP1]	3.22 ± 0.2	3.09 ± 0.05	–	–
LEYLYTDSCCPAGIFQAMCLLICA [RHOBTB3]	3.08 ± 0.45	3.19 ± 0.55	–	–
GGFGQVYKVRHVHWKTWLAIKCSP [RIPK4]	2.35 ± 0.85	2.05 ± 0.32	–	–
ASRLLTTALTSFCAKYTYPVCSAL [FANCE]	3.29 ± 0.58	3.34 ± 0.49	–	–
PSWAALNSSTWGSLKQALKGLSVE [SNX8]	2.94 ± 0.17	3.46 ± 0.29	–	–
PAQSGILSDREVVNLFLHFTVNPK [BTBD1]	1.84 ± 0.24	2.53 ± 0.23	–	–
EPLAEGAAAEFSSLLRRIKGKLFT [SLC35F2]	2.55 ± 0.33	2.65 ± 0.096	–	–
PLTSVCYPQDLPRPLRSREFPQFE [TRAF3IP2]	3.75 ± 0.27	3.62 ± 0.4	–	–
LTWSELFVLNAAQCSMPLHVAPLL [NR2F2]	2.98 ± 0.21	3.16 ± 0.32	–	–
ALPDSVLRRFVVRTMCAVLGLVAR [AUP1]	2.51 ± 0.21	2.32 ± 0.44	–	–
QQAEKILKSMDKNGTMTIDWNEWR [SLC25A25]	3.36 ± 0.47	3.56 ± 0.39	–	–
GEEALSLQALDPQQCVDKESSLGS [SLC22A15]	5.36 ± 0.33	5.36 ± 0.32	–	–
PPPPPPAQTFLFQGQPVVNRPLSL [TRADD]	3.71 ± 0.4	3.99 ± 0.29	–	–

Sequence	protein stability index [1]	protein stability index [2]	protein stability index (treatment: DMSO, c terminus: native)	protein stability index (treatment: MLN4924 1 uM, 8 h, c terminus: native)
QPKKLHLCPLCGKNFSNNSNLIRH [ZNF263]	3.02 ± 0.39	3.37 ± 0.64	–	–
TSFEPEALGNLVEGMDFHRFYFEN [CAMK2B]	3.14 ± 0.27	3.18 ± 0.26	–	–
HAGKKGKLSEHLRYCDSILREMLS [BRD3]	2.16 ± 0.41	2.21 ± 0.3	–	–
GSLCSPWAAPRVGPLPPAPAMVRI [YPEL3]	2.95 ± 0.15	3.07 ± 0.45	–	–
KRESPGVGGGSGDEASAATPPSSR [ZBTB22]	5.53 ± 0.23	5.451 ± 0.044	–	–
TKFGLFTPGSRIESILMSLPLTAR [CPOX]	2.21 ± 0.3	2.2 ± 0.28	–	–
MMKAKGDLEMKEEEEISETGELVG [ZBED2]	5.59 ± 0.27	5.35 ± 0.26	–	–
RQLMKVVNEMCPNITRIYNIGKSH [CPXM2]	2.26 ± 0.12	2.71 ± 0.56	–	–
ESDSRKVAEETPDGAPALCPSPEA [PRKX]	5.69 ± 0.17	5.58 ± 0.3	–	–
RTMLDFPQHVSSDKEVRAASTEAD [NLN]	5.55 ± 0.23	4.74 ± 1.4	–	–
VRQINRKTPVPGKARKKSSCQLL [RAP1B]	–	–	4.5 ± 0.27	4.44 ± 0.18
ETFSTLKNWVKELRQHGPPNIVVA [RAB22A]	2.4 ± 0.69	2.36 ± 0.14	–	–
SSEDYRQLELVILQSEPHRAGVQW [KCNK9]	2.41 ± 0.19	2.38 ± 0.29	–	–
FYFKLTDLYKKVKKNSSPPLSLYG [CRY1]	2.7 ± 0.51	2.69 ± 0.49	–	–
DTTELSSAERYNPRTNQWSPVVAM [KLHL20]	3.5 ± 0.17	3.7 ± 0.19	–	–
LTVNTEAQQLLREFEEATGEAGWG [FOXJ1]	4.55 ± 0.14	4.62 ± 0.073	–	–
SVNDQCGFGVLRLDADAAQRVVYL [TSPAN10]	2.32 ± 0.27	2.28 ± 0.23	–	–
VHGDPAVWWVSQFVKYLIRPQPWL [FUT8]	2.95 ± 0.34	3.21 ± 0.6	–	–
NKNSTDVKGCSMYVALFPCNECAK [DCTD]	2.19 ± 0.37	2.13 ± 0.14	–	–
DAWKRPDALPGQSKRLAVPCKLEK [TLE6]	4.2 ± 0.17	4.28 ± 0.2	–	–
VQLSDEMFVFQDGRWVNENCRLQS [CBY2]	3.06 ± 0.26	3.03 ± 0.34	–	–
IMLKNISQDERLDVLLTLKHTVKE [IQUB]	2.45 ± 0.56	2.09 ± 0.34	–	–
PSDDLTLLESSSSYKNLTLKFHKL [MCOLN1]	3.24 ± 0.21	3.31 ± 0.24	–	–

Sequence	protein stability index [1]	protein stability index [2]	protein stability index (treatment: DMSO, c terminus: native)	protein stability index (treatment: MLN4924 1 uM, 8 h, c terminus: native)
YGVASCEACKAFFKRTIQGSIEYS [ESRRA]	2.34 ± 0.22	2.52 ± 0.072	–	–
HVTHWMGQPFNSDDRNTACHHGLV [DLC1]	2.51 ± 0.28	2.92 ± 0.31	–	–
KKEDCLKLLLFLSTELQASQILQN [FAM98B]	3.41 ± 1.1	–	–	–
FLQRCLESPFSRKLDLWSFLDIPR [NET1]	2.45 ± 0.47	2.1 ± 0.18	–	–
ENKENEAFEFKKPVRPVSRGCLHS [CDC25A]	3.87 ± 0.7	3.73 ± 0.52	–	–
HCLDQVGLFRKSGVKSRIQALRQM [DLC1]	2.48 ± 0.36	2.4 ± 0.25	–	–
LFSELAEDKENYKKFYEAFSKNLK [HSP90AB1]	2.83 ± 0.23	3.62 ± 0.17	–	–
VTINIQDLLSCSNFAVQHRYLFEE [MATN2]	2.86 ± 0.35	2.87 ± 0.73	–	–
KKQQELTAAVLGLICEGLYPASIV [ZBED1]	2.97 ± 0.63	3.02 ± 0.58	–	–
PRVLTLSERPLDFLDLERPPTTPQ [MFF]	4.26 ± 0.19	4.53 ± 0.41	–	–
YPAMTFYSPAVMNYSIPSNVTNLE [ESR2]	2.63 ± 0.61	2.93 ± 0.25	–	–
IEKWVILEKDFSIYGGELGPMMKL [ACSBG2]	2.56 ± 0.71	2.38 ± 0.44	–	–
AWGPGTLAAAPEGLEDAGLDPHFV [TEX19]	4.31 ± 0.25	4.37 ± 0.26	–	–
LIANIVHDGKPSEGSYRIHVLHHG [USP39]	2.21 ± 0.2	2.19 ± 0.25	–	–
HPFLYLSLEISPQNVDVNVHPTKH [MLH1]	–	2.37 ± 0.34	–	–
SFSNYRPFEPQALGLSPSWRLTGF [SEPHS2]	1.95 ± 0.2	2.01 ± 0.42	–	–
QDFLLFSPEVESLPVASSSTLLPL [NFE2L1]	3.34 ± 0.79	3.37 ± 0.57	–	–
SKYLLEEWFQNCYARYHQAFADRD [TEKT4]	2.48 ± 0.24	2.15 ± 0.25	–	–
EYIVKKLSRQEFLGMVGLFGTIIS [SLC35F2]	2.43 ± 0.26	2.44 ± 0.27	–	–
AAFGHVQRAEMLPKTSGTRATSLG [CPOX]	3.82 ± 0.18	3.91 ± 0.077	–	–
